Results reported in paper PMC6690965, “OsCAldOMT1 is a bifunctional O-methyltransferase involved in the biosynthesis of tricin-lignins in rice cell walls” (Scientific Reports, 2019).

What was measured:
[1] = substrate: COc1cc(-c2cc(=O)c3c(O)cc(O)cc3o2)cc(O)c1O; assay: HPLC/LC-MS O-methylation assay, Michaelis-Menten fit; format: biochemical, Oryza sativa; conditions: 50 mM Tris-HCl pH 7.5, co-substrate S-adenosyl-L-methionine, 20 min, 10-200 µM substrate, 5'-O-methylation giving tricin
[2] = substrate: COc1cc(/C=C/C=O)cc(O)c1O; assay: as above; format: biochemical, Oryza sativa; conditions: 50 mM Tris-HCl pH 7.5, co-substrate S-adenosyl-L-methionine, 20 min, 10-200 µM substrate

B1: OsCAldOMT1 (Oryza sativa Japonica Group) (protein)
chain: MGSTAADMAAAADEEACMYALQLASSSILPMTLKNAIELGLLETLQSAAVAGGGGKAALLTPAEVADKLPSKANPAAADMVDRMLRLLASYNVVRCEMEEGADGKLSRRYAAAPVCKWLTPNEDGVSMAALALMNQDKVLMESWYYLKDAVLDGGIPFNKAYGMTAFEYHGTDARFNRVFNEGMKNHSVIITKKLLDLYTGFDAASTVVDVGGGVGATVAAVVSRHPHIRGINYDLPHVISEAPPFPGVEHVGGDMFASVPRGGDAILMKWILHDWSDEHCARLLKNCYDALPEHGKVVVVECVLPESSDATAREQGVFHVDMIMLAHNPGGKERYEREFRELARAAGFTGFKATYIYANAWAIEFTK
Work on B1 yielded a Km [1] of 68.2 ± 14.5 µM, a kcat [1] of 158.5 ± 16.6 s⁻¹ and a Km [2] of 132.8 ± 21.3 µM. The kcat [2] was 373.0 ± 37.9 s⁻¹.
